From patent US20060233785A1, “Immunointeractive molecules and uses thereof” (priority 2001, published 2006)

Key:
[1] = Immunisation of mice with rHev b 6, serum ELISA; assay type: in vivo, BALB/c mice; settings: eight mice; 20 μg intraperitoneally
Protocol: Monoclonal antibody production followed established protocols (Sutherland et al, 2002, supr; Goding, J. Monoclonal Antibodies: principles and practice 3rd ed. London: Academic Press. 492, 1996). Approval was obtained from the Monash University Animal Ethics Committee. Eight BALB/c mice were immunised with 20 μg rHev b 6 in 100 ill of PBS, intraperitoneally, three times at three weekly intervals. The first injection was given with Complete Freund's Adjuvant (100 μl; Sigma) and the two subsequent injections with Incomplete Freund's Adjuvant (100 μl; Sigma). Mice were finally boosted with 20 μg rHev b 6 in 200 μl PBS intraperitoneally 3 days before being sacrificed. Hybridomas were generated by fusing immune mouse spleen cells with murine myeloma cells (line X-63.Ag8.653; 17) and supernatants were screened for antibody to rHev b 6 and glove extract by performing a duplicate ELISA as described below. Positive hybridomas were expanded and cloned by limiting dilution.

[2] = tested on: rHev b 6-specific serum IgE; test: Immunoblotting detecting rHev b 6-specific serum IgE (Example 3); assay type: binding, human; settings: sera from patients 1, 4 and 5; prohevein band around 20 kDa
Protocol: FIG. 4 is an image of immunoblotting detecting rHev b 6-specific serum IgE. rHev b 6 was subjected to electrophoresis under reducing conditions on a 16% SDS PAGE minigel and transferred to a nitrocellulose membrane. After blocking with skim milk powder, the membrane was incubated with serum from latex allergic and non-allergic subjects (1:5 dilution). Antibody binding was detected by incubation with rabbit anti-human IgE, swine anti-rabbit immunoglobulins-HRP and 4-chloro-1-naphthol as substrate. M: molecular mass markers; C: Coomassie-stained gel; lane 1: 1A5.4.3 monoclonal antibody; lane 2: P1 serum; lane 3: P4 serum; lane 4: P5 serum; lane 5: non-latex-allergic serum; lane 6: no serum.
Hybridoma supernatants and patient sera were tested for reactivity with LAL, NAL, glove extract, rHev b 6 and hevein by 16% SDS-PAGE and immunoblotting as described previously (Sutherland et al., 2002, supra).

[3] = tested on: Hev b 6-specific mAb 1A5.4; test: Western blotting of rHev b 6 forms with Hev b 6-specific mAb (Example 8); assay type: binding, mouse
Protocol: (§1) FIG. 6 is an image of sulphonation abolishing the IgE reactivity of rHev b 6. rHev b 6 (A) and sulphonated rHev b 6 (B) were resolved by 16% SDS-PAGE under non-reducing conditions. Gels were either stained with Coomassie Brilliant Blue (1) or transferred to nitrocellulose. Strips with transferred protein were incubated with the Hev b 6-specific mAb 1A5.4 and binding detected (2). Strips with transferred protein were also incubated with sera from two latex allergic, Hev b 6 sensitized subjects (3 and 4) and one non-latex-allergic, atopic subject (5). The presence or absence of IgE binding was then detected. […] Plates were coated with rHev b 6 and sulphonated rHev b 6 and the presence or absence of IgE-binding detected. As a positive control the Hev b 6-specific mAb 1A5 was used. NB indicates no binding of IgE was detected.
(§2) Four μg of rHev b 6 or sulphonated rHev b 6 were separated on 16% sodium dodecyl sulphate (SDS) polyacrylamide gels with 4% stacking gel. Electrophoresis was performed at 125V for 2 h on a Novex Xcell II Mini-Cell system (Novex, CA, USA). Proteins were visualized with Coomassie Brilliant Blue R-250 (Sigma). The separated proteins were electrophoretically transferred to nitro-cellulose membranes (BA 0.45μ, Schleicher and Schuell, Dassel, Germany) at 25V for 1 hr in transfer buffer. Membranes were blocked for 1 h at RT in 10% skim milk powder (SMP) in PBS, washed once in 0.05% Tween20/PBS and twice in PBS. Washed membranes were incubated for 1 hour at RT with either culture supernatant containing the Hev b 6-specific mAb 1A5.4, diluted 1 in 100 in 1% SMP/PBS or human serum, diluted 1 in 5 in 1% SMP/PBS. For mAb detection membranes were washed as above and incubated for 1 h at RT with goat HRP-conjugated anti-mouse Ig (Silenus), diluted 1 in 2000 in 1% SMP/PBS. For IgE detection, membranes were incubated for 1 h at RT with rabbit anti-human IgE (Dako, Denmark) at 1 in 1000 dilution, followed by swine anti-rabbit IgG-HRP conjugate (Promega) at 1 in 1000 dilution. After washing, the binding of 1A5.4 mAb and patient serum IgE to rHev b 6 was detected using hydrogen peroxide/diaminobenzidine solution.

[4] = tested on: IgE from latex allergic subjects; test: Western blotting of rHev b 6 forms with IgE of patient sera (Example 8); assay type: binding, human
Protocol: as §1, with “6 is an image of sulphonation abolishing the IgE reactivity of rHev b 6. rHev b 6 (A) and sulphonated rHev b 6 (B) were resolved by 16% SDS-PAGE under non-reducing conditions.” left out
as §2

latex-specific serum IgE = test: ELISA detecting latex-specific serum IgE (Example 3); assay type: binding, human; settings: ten latex-allergic patients; serum 1:10
Protocol: FIG. 3 is a graphical representation of an ELISA detecting latex-specific serum IgE. ELISA plates were coated with 10 μg/ml rHev b 6 and glove extract, blocked with skim milk powder and incubated with patient (P1-10) and non-allergic control serum (NA1-6) diluted 1:10. Antibody binding was detected by incubation with rabbit anti-human IgE, swine anti-rabbit immunoglobulines-HRP and o-phenylenediamine as substrate. Mean values+SD for triplicate wells are shown. The cut-off for positive was 2 SD above the mean OD of non-allergic subjects for rHev b 6 (dotted line) and glove extract (black line).
Hybridoma supernatants were tested for reactivity to rHev b 6, glove extract and Hev b 6 peptides by ELISA using an established protocol (Sutherland et al., 2002, supra). Patient serum samples were tested for latex-specific IgE using a similar ELISA protocol with rabbit anti-human IgE (1/1000) and swine anti-rabbit immunoglobulins-horseradish peroxidase conjugate (1/1000). Monoclonal antibody isotypes were determined using a mouse immunoglobulin isotyping ELISA kit (BD Biosciences, San Diego, Calif., USA).

[5] = reducing SDS-PAGE (data not shown)
[6] = non-reducing SDS-PAGE, sera of latex allergic subjects

number of latex-allergic patients with serum IgE binding by ELISA (latex-specific serum IgE)	Molecule	number of immunised mice whose serum reacted with glove extract by ELISA [1]	number of immunised mice with strong polyclonal immune response to rHev b 6 [1]	serum IgE reactivity by Western blotting [2]	Hev b 6-specific mAb reactivity in Western blotting ([3]; non-reducing SDS-PAGE)	Hev b 6-specific mAb reactivity in Western blotting [3, 5]	IgE reactivity in Western blotting [4, 6]	IgE reactivity in Western blotting [4, 5]
eight	rHev b 6: recombinant Hev b 6 (prohevein) expressed in E. coli from pPROEX-HTa with 6-His tag (protein, left off: small tags and cut ends, recombinant Hev b 6 (prohevein) expressed in E. coli from pPROEX-HTa with 6-His tag) EQCGRQAGGKLCPNNLCCSQWGWCGSTDEYCSPDHNCQSNCKDSGEGVGGGSASNVLATYHLYNSQDHGWDLNAASAYCSTWDANKPYSWRSKYGWTAFCGPVGAHGQSSCGKCLSVTNTGTGAKTTVRIVDQCSNGGLDLDVNVFRQLDTDGKGYERGHITVNYQFVDCGDSFNPLFSVMKSSVIN	seven	eight	all showed reactivity	reactive	reactive	reactive	reactive
–	sulphonated rHev b 6: purified rHev b 6 sulphonated in sulphonation buffer to improve solubility (protein, left off: small tags and cut ends) EQCGRQAGGKLCPNNLCCSQWGWCGSTDEYCSPDHNCQSNCKDSGEGVGGGSASNVLATYHLYNSQDHGWDLNAASAYCSTWDANKPYSWRSKYGWTAFCGPVGAHGQSSCGKCLSVTNTGTGAKTTVRIVDQCSNGGLDLDVNVFRQLDTDGKGYERGHITVNYQFVDCGDSFNPLFSVMKSSVIN	–	–	–	reactive	reactive	failed to react	reactive
